Data set [1] concerns MS2 coat protein. Briefly: apparent KD of MS2 coat protein, switch OFF state (with FMN for OFF switches, without FMN for ON switches); designed switch direction (-1 OFF switch, 1 ON switch): 1; higher = weaker reporter binding. The settings on record: FMN input: 0 or 200 uM; Eterna round: R93 (includes R88 designs). The essentials:
(§1)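 Titrations with SNAP-549-labelled MS2 coat protein ran in twofold steps from 0.7 or 1.5 nM to 3 µM, each step taking 0.8–1.5 h at the start and 10–20 min toward the end. The targets were designed RNA switches transcribed on-chip from Illumina sequencing clusters, held in 100 mM Tris-HCl pH 7.5, 80 mM KCl, 4 mM MgCl2, without or with constant ligand. Apparent KD was taken per design as the median of normalised cluster binding-curve fits.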

In data set [2] the test system is MS2 coat protein. As to the kind of experiment: apparent KD of MS2 coat protein, switch ON state; designed switch direction (-1 OFF switch, 1 ON switch): 1; higher = weaker reporter binding. The conditions noted are these: FMN input: 0 or 200 uM; Eterna round: R93 (includes R88 designs). In short, it runs like this: as §1

Regarding “AAAAAACAUGAGGAUCACCCAUGUCCUCGGACAUGAGGAUAUGUACAGACUUCGGUCUGUACAGAAGGCAUGUAAA [SS1 - 1018]”, the “apparent KD of MS2 coat protein” value in data set [1] worked out at 684 nM; in data set [2], 901 nM.

Turning to “AUGGUGUAGGUACAGGAUAUGUUGCUCGUAACAUGAGGAUCACCCAUGUACCUAUGAGAUUAAAUGCAGAAGGGUGCACACCACG [Usbivece]”, the figures for the “apparent KD of MS2 coat protein” value in data set [1] and in data set [2] were 35.5 nM and 70.1 nM, respectively.

For the sequence “AGAAGGUGGGUCGAGGAUAUCAGGCACGCCACAUGAGGAUCACCCAUGUUUUUGGCACCGCCCAAUGAGAAGGUGAACACCUUCA [Cesobe]”, the “apparent KD of MS2 coat protein” value in data set [1] came to 12.4 nM; in data set [2] it was 9.34 nM.

On to “AAUAAACAUGAGGAUCACCCAUGUACCGACCACUAAGGAUAUGGGCGAAUAACAGCUCGGCCAGAAGGUAGAGGUG [Gebimarabi]”, for which the “apparent KD of MS2 coat protein” value in data set [1] is 62.5 nM; in data set [2] it was 46.7 nM.

As for “UACAGACAUGAGGAUCACCCAUGUAGAAUUAUGGGAGGAUAUACAAAGACGAGAGUCAGAGUAGAAGGCCUAGGAA [salish99-ss1-164]”, the “apparent KD of MS2 coat protein” value in data set [1] came out at 64.6 nM; in data set [2], 24 nM.

As to “AUAAAACAUGAGGAUCACCCAUGUCAACAAAGUCGAGGAUAUGGGCAAAUAAAAUAAGAACCAGAAGGCGAAUAAU [Teenbexe]”, the “apparent KD of MS2 coat protein” value was 593 nM in data set [1] and 32.2 nM in data set [2].

For “AGAAAACAUGAGGAUCACCCAUGUAGGAAUAUGGGAGGAUAUACAGAGACGAAAGUCAGAGUAGAAGGCCUAAGAA [salish99-SS1-088]”, the “apparent KD of MS2 coat protein” value in data set [1] turned out to be 96.7 nM; in data set [2], 24 nM.

Turning to “GCAGGGCUACACUAGGAUAUGGGUGUCUAAACAUGAGGAUCACCCAUGUGAUGGCAAAACAAAGCUCAGAAGGAGUCGUAGCCCA [Bebirare]”, the “apparent KD of MS2 coat protein” value in data set [1] was found to be 24.3 nM; in data set [2], 14 nM.

On to “AGGAGACAUGAGGAUCACCCAUGUGAGAAGAGGCGAGGAUAUCGAAAGAAAGAAGAGAAACGAGAAGGCGCGAGCC [salish99-SS1-032]”, for which the “apparent KD of MS2 coat protein” value came to 28.8 nM in data set [1] and 28.1 nM in data set [2].

On to “AAGAAACAUGAGGAUCACCCAUGUAAACUCGAGAGAGGAUAUCGUACAUGGAAGAUUCAACGAGAAGGCUCUAGAG [Same State 1.1a (Pariah 3, G boost at 31, GC 76/28)]”, for which the “apparent KD of MS2 coat protein” value worked out at 41.5 nM in data set [1] and 23.8 nM in data set [2].

As for “ACUACACAUGAGGAUCACCCAUGUCAGGUCGGACUAGGAUAUUAUAAACCAGAGUAAAAAUAAGAAGGAGUAGAAA [JR_SS001_Sub309]”, the results for the “apparent KD of MS2 coat protein” value in data set [1] and in data set [2] were 29.9 nM and 37.9 nM, respectively.

Take “AACAAUCUAUCUGAGGAUAUCAUGUCAAAGACAUGAGGAUCACCCAUGUACCAGGAAACUGGUUAUGAGAAGGCAGAUAGAUUGA [SS2: 1115]”: the “apparent KD of MS2 coat protein” value in data set [1] is 1290 nM; in data set [2], 37.3 nM.

With “AACAAUCUAUCUGAGGAUAUCAUUAAAAAGACAUGAGGAUCACCCAUGUAGCAGGAAACUGCAUAUGAGAAGGCAGAUAGAUUGA [SS2: 1123]”, the “apparent KD of MS2 coat protein” value was determined as 13.9 nM in data set [1] and 12.5 nM in data set [2].

As to “CAAACAACAACACAGGAUAUACAUAUAAUAACAUGAGGAUCACCCAUGUAAGGCAAAAAUAAGCUGUAGAAGGGUGAACACACAA [Default title]”, the “apparent KD of MS2 coat protein” value in data set [1] was determined as 14.1 nM; in data set [2], 10.6 nM.

As to “AACAAUCUAUCUGAGGAUAUCAUAUAAAAGACAUGAGGAUCACCCAUGUAGCAGGAAACUGCAUAUGAGAAGGCAGAUAGAUUGA [SS2: 1121]”, the “apparent KD of MS2 coat protein” value was 10.8 nM in data set [1] and 7.5 nM in data set [2].

Regarding “AAAAAACAUGAGGAUCACCCAUGUAAAAAAAACACAGGAUAUCCCUUUAAAAAAAAAAAAGGAGAAGGGUGAAAAA [Nob's Hobby 4 - Jieux - Same State 1]”, the “apparent KD of MS2 coat protein” value in data set [1] stood at 23.4 nM; in data set [2], 20.4 nM.

Take “AAUCCAACUAGUCAGGAUAUCAGGCGUAAGACAUGAGGAUCACCCAUGUCCUAAGAACAAGUAACUGAGAAGGGACAGGGCGACC [JR_SS002_Sub411]”: the “apparent KD of MS2 coat protein” value in data set [1] was determined as 62 nM; in data set [2] it was 57.6 nM.

Regarding “AGAAAACAUGAGGAUCACCCAUGUGAUAACAUGGGAGGAUAUACGAGGACGAGAGUCAAGGUAGAAGGCCUAAAGA [Garnet 72]”, the “apparent KD of MS2 coat protein” value in data set [1] was determined as 114 nM; in data set [2], 111 nM.

On to “AACAAACAUGAGGAUCACCCAUGUAAACAAACAUGAGGAUAUAUAACACAACAUCAACAGAUAGAAGGCAUAAAUA [JR_SS001_Sub1202]”, for which the “apparent KD of MS2 coat protein” value was 84.8 nM in data set [1] and 92.1 nM in data set [2].

For the origin of these results see the supplement of paper PMC9170038.
